Values joined by “and” are separate entries in the source; they are usually repeats but may differ in a detail not shown here. Equal entries are not always repeated. Ends that are not written are not given here.

The target of one test is mouse GPVI (mouse) (UniProt P0C191). As to the kind of experiment: cell-based or functional assay.
Test [1] has as its target T1, GPVI peptide 118 (human).
T1 sequence (peptide, N-terminus acetylated): TNKVFTTETSRSI
As to the kind of experiment: PepSpot control incubation.

In test [2] the target is T2, GPVI peptide 32 (human).
T2 sequence (peptide, N-terminus acetylated): SSSRYQDQAVLFI
Put plainly: PepSpot control incubation.

The target of test [3] is T3, GPVI peptide 117 (human).
T3 sequence (peptide, N-terminus acetylated): SFTNKVFTTETSR
Put plainly: PepSpot control incubation.

For test [4], the target named is T4, GPVI peptide 11 (human).
T4 peptide: Ac-QSGPLPKPSLQAL
Put plainly: PepSpot control incubation.

For test [5], the target named is T5, GPVI peptide 54 (human).
T5 peptide: Ac-ATGVFAKPSLSAQ
Put plainly: PepSpot control incubation.

For test [6], the target named is T6, GPVI peptide 131 (human).
T6 sequence (peptide, N-terminus acetylated): ARQYYTKGNGGRE
Put plainly: PepSpot control incubation.

For test [7], the target named is T7, GPVI peptide 53 (human).
T7 sequence (peptide, N-terminus acetylated): LVATGVFAKPSLS
Put plainly: PepSpot control incubation.

For test [8], the target named is T8, GPVI peptide 7 (human).
T8 sequence (peptide, N-terminus acetylated): LCLGRVPAQSGPL
Put plainly: PepSpot control incubation.

The target in test [9] is T9, GPVI peptide 37 (human).
T9 peptide: Ac-LFIPAMKRSLAGR
As to the kind of experiment: PepSpot control incubation.

Test [10] addresses T10, GPVI peptide 33 (human).
T10 sequence (peptide, N-terminus acetylated): SRYQDQAVLFIPA
Put plainly: PepSpot control incubation.

Test [11] addresses T11, GPVI peptide 130 (human).
T11 sequence (peptide, N-terminus acetylated): GPARQYYTKGNGG
Put plainly: PepSpot control incubation.

The target of test [12] is collagen (type I bovine; BD Bioscience) (bovine) (UniProt P02453). As to the kind of experiment: ELISA, collagen type 1 coated plates, Lineweaver-Burk plot. (An ELISA detects its analyte on a solid surface through an enzyme-linked reagent.)
Chain of collagen (type I bovine; BD Bioscience) (bovine) (P02453 162-1217, chain 1 of 2): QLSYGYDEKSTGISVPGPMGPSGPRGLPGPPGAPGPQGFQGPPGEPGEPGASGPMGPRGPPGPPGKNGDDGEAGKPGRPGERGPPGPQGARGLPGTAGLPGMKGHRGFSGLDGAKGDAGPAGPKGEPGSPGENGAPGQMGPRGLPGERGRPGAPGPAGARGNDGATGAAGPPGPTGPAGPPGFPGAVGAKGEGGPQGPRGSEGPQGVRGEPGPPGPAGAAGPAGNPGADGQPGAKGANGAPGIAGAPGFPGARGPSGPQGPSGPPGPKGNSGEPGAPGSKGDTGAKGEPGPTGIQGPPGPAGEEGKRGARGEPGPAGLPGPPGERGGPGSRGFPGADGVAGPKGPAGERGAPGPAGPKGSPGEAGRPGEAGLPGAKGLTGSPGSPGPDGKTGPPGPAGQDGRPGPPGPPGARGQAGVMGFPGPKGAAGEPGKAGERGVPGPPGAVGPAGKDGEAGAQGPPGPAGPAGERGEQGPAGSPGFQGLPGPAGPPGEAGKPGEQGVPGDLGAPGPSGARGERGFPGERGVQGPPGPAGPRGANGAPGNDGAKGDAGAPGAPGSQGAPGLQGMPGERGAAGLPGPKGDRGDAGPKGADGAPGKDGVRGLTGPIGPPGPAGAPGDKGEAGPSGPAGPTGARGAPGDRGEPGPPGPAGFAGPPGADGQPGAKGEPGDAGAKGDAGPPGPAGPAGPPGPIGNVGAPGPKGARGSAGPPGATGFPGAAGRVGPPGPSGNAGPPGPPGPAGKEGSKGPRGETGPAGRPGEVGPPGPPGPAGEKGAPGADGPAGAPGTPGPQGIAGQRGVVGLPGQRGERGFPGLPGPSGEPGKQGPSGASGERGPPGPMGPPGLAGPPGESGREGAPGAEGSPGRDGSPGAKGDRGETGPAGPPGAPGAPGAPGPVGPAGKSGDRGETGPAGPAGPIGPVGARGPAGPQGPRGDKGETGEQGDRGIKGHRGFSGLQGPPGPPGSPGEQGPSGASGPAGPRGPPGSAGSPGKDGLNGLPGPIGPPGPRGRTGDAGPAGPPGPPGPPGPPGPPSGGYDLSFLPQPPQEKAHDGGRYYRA
Chain of collagen (type I bovine; BD Bioscience) (bovine) (P02465 80-1117, chain 2 of 2, further chain): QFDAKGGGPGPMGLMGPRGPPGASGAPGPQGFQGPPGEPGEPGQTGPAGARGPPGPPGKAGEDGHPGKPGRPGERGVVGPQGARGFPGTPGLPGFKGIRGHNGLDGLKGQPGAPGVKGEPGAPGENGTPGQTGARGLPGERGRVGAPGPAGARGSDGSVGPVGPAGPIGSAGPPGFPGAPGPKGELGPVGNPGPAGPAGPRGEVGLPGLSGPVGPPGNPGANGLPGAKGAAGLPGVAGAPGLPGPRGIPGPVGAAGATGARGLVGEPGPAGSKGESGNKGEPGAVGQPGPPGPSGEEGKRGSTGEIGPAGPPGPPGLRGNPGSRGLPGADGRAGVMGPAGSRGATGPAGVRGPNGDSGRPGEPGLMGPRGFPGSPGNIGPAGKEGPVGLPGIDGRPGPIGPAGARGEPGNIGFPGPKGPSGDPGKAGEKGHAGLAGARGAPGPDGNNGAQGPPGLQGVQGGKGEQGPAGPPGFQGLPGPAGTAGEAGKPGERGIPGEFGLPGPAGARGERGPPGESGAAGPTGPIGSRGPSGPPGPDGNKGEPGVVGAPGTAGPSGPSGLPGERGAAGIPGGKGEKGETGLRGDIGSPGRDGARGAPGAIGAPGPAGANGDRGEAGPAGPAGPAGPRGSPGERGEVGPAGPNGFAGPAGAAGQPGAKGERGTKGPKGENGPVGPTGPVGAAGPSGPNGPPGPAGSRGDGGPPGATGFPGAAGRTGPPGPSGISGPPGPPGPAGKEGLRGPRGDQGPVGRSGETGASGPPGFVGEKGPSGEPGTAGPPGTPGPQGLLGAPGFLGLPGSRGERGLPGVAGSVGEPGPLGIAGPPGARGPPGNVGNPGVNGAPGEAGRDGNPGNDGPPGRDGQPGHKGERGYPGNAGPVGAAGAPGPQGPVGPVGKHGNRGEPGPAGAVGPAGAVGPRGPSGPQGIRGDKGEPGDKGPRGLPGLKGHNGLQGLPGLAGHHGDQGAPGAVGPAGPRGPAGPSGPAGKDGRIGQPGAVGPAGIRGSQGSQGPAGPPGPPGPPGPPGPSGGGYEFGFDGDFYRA
A further test concerns the target Fc-GPVI-nt (human). As to the kind of experiment: competition ELISA, immobilized collagen.
The target of test [13] is T1, GPVI peptide 118 (human). Put plainly: PepSpot array.
Test [14] addresses T2, GPVI peptide 32 (human). As to the kind of experiment: PepSpot array.
The target in test [15] is T3, GPVI peptide 117 (human). As to the kind of experiment: PepSpot array.
Test [16] has as its target T6, GPVI peptide 131 (human). As to the kind of experiment: PepSpot array.
Test [17] deals with T7, GPVI peptide 53 (human). As to the kind of experiment: PepSpot array.
In test [18] the target is T8, GPVI peptide 7 (human). As to the kind of experiment: PepSpot array.
Test [19] addresses T10, GPVI peptide 33 (human). Put plainly: PepSpot array.
In test [20] the target is T11, GPVI peptide 130 (human). Put plainly: PepSpot array.
In test [21] the target is T4, GPVI peptide 11. Put plainly: PepSpot array. How it is done:
(§1) The peptides were synthesized on a cellulose membrane in a stepwise manner resulting in a defined arrangement (peptide array) and are covalently bound to the cellulose membrane. Binding assays were performed directly on the peptide array. In general an antigen peptide array is incubated with blocking buffer for several hours to reduce non-specific binding of proteins or antibodies. It follows the incubation with a primary (antigen peptide-binding) antibody in blocking buffer and an incubation with a horseradish peroxidase (HRP)-labelled secondary antibody, which binds selectively the primary antibody. Alternatively a HRP-labelled primary antibody in blocking buffer can be used.
(§2) A short T(Tween)-TBS-buffer washing directly after the incubation of the antigen peptide array with the secondary protein or antibody or the HRP-labelled primary antibody followed by the first chemiluminescence experiment is made to get an first overview which antigen peptides do bind the primary antibody. Several buffer washing steps follow (T-TBS- and TBS-buffer) to reduce false positive binding (unspecific antibody binding to the cellulose membrane itself). After these washing steps the final chemiluminescence analysis is performed. The data were analysed with an imaging system showing the signal intensity (Light units, LU) as single measurements for each peptide. In order to evaluate non-specific binding of secondary antibodies, incubations using the secondary antibody have to be performed in the absence of the primary antibody as control incubation.

The target of test [22] is T5, GPVI peptide 54. As to the kind of experiment: PepSpot array. How it is done:
as §1, §2

The target of test [23] is T9, GPVI peptide 37. As to the kind of experiment: PepSpot array. The procedure:
as §1, §2

Chain of mouse GPVI (mouse) (P0C191 22-313): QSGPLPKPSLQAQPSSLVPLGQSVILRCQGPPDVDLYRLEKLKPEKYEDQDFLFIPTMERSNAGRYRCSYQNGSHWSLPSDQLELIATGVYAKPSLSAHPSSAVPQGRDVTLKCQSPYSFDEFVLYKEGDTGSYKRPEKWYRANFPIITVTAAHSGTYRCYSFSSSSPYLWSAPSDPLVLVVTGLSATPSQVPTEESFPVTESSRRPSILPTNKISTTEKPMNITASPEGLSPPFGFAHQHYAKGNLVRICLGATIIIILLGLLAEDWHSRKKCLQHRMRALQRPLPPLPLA
Chain of Fc-GPVI-nt (human) (chain, as listed by the source limits assumed): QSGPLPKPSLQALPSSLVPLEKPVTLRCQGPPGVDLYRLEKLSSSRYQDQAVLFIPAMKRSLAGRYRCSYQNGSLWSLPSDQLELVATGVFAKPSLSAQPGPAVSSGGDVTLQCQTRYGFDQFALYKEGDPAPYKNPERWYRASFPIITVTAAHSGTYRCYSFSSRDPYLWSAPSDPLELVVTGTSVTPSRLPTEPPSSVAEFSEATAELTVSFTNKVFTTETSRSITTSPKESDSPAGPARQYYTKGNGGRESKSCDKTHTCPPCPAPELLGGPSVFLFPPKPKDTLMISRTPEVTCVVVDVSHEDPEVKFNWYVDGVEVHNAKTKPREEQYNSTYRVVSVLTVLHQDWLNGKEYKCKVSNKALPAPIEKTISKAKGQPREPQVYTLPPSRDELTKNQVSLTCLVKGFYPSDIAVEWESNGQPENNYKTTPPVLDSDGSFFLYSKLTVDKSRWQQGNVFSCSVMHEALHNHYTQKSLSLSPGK

JAQ1 (antibody): in the test with mouse GPVI (mouse), the ATP release, mouse platelet-rich plasma is 1.09 nM ATP; the platelet aggregation after stimulation with 2 µg collagen/ml, mouse platelet-rich plasma is 2% and 1.5%.

Take anti-rat-HRP (Sigma A9037) (antibody): the LU (Light Units) with GPVI peptide 118 (human) [1] was 354 LU; in the test with GPVI peptide 32 (human) [2] it was 240 LU; in the test with GPVI peptide 117 (human) [3], 377 LU; with GPVI peptide 11 [4], 212 LU; with GPVI peptide 54 [5] it was 190 LU; in the test with GPVI peptide 131 (human) [6], 389 LU. The LU (Light Units) was determined as 240 LU in the test with GPVI peptide 53 (human) [7]; 239 LU in the test with GPVI peptide 7 (human) [8]; 280 LU with GPVI peptide 37 [9]; 204 LU with GPVI peptide 33 (human) [10]; 343 LU in the test with GPVI peptide 130 (human) [11].

Take “monomeric GPVI fusion protein (Fc fusion)”: the fold lower affinity compared to dimeric Fc-GPVI-nt in test [12] amounted to 10 fold.

In turn, soluble collagen (ligand) gave a concentration required to reduce Fc-GPVI-nt binding to immobilized collagen by more than 50% with Fc-GPVI-nt (human) of 100 µg/mL.

B1: monoclonal antibody hGP 5C4 (antibody, V domains shown)
VH: EVKLQESGGGLVQPGRSLKLSCTASGFTFSDYFMSWVRQAPTRGLEWVASISSGGASAYWRDSVKGRFTISRDNAKSALYLQMDSLRSEDTATYFCARGELDFDYWGQGVMVAVSS
VL: ADPNSTLLSASVGDRVTLNCTASQNVYKNLAWYQQKLGEAPRLLLYSANSQTGIPSRFSGSGSGPDFTLTISSLQPEDVASYFCQQYYSGNTFGAGTKLELKR
notes: Monoclonal IgG from Lou/C rats immunized with Fc-GPVI-nt; also called ab 5C4; anti-GPVI mAb 5C4
B1: the LU (Light Units) with GPVI peptide 118 (human) [13] was determined as 336 LU; with GPVI peptide 32 (human) [14] it was 319 LU; in the test with GPVI peptide 117 (human) [15], 472 LU; with GPVI peptide 131 (human) [16], 289 LU; in the test with GPVI peptide 53 (human) [17], 359 LU; with GPVI peptide 7 (human) [18], 292 LU. The LU (Light Units) with GPVI peptide 33 (human) [19] was determined as 259 LU; with GPVI peptide 130 (human) [20], 255 LU. Besides, the “signal to noise ratio” value in the test with GPVI peptide 11 [21] is around 20; in the test with GPVI peptide 54 [22] it was around 4; with GPVI peptide 37 [23], around 4.

The values above are taken from patent US20100003244A1 (TRIGEN, published 2010).
